Article PMC12780147

How the values were obtained:
CD127 (IL-7Rα) = CD127 (IL-7Rα) (UniProt P16871); assay: BLI
[1] = target: TGF-β1 (not stated (human TGF-β1 stated for the reporter assay only)); assay: BLI

Chain of CD127 (IL-7Rα) (P16871 21-459): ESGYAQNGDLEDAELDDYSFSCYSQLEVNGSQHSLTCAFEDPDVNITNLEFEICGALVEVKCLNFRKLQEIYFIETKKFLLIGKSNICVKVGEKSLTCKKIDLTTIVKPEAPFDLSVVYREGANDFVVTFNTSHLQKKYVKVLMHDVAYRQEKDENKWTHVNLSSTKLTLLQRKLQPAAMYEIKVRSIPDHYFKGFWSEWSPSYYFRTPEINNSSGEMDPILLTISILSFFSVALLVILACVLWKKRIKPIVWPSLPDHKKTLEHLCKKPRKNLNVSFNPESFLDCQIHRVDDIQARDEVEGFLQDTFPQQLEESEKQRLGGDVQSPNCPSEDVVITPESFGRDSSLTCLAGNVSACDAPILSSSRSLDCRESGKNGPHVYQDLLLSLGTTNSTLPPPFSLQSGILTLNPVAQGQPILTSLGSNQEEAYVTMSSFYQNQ

Kd (CD127 (IL-7Rα)): 6.91 nM
Kd [1]: 0.145 nM
Substance: rhIL-7-hyFc-sTBRII (IL7-TBRII), bifunctional fusion protein (from UniProt P13232 26-177; P37173 23-166) (Fc fusion)
